Laboratory results as given in paper PMC5889391, “Lipid binding promotes the open conformation and tumor-suppressive activity of neurofibromin 2” (Nature Communications, 2018).
Substitutions are numbered along the chain they refer to. Blank lines part the entries; values can stand above or below the molecule they belong to.

Key:
[1] = target: T1, neurofibromin 2 (full-length, GST-tagged) (Homo sapiens, UniProt P35240, A585W/R588K); assay: microscale thermophoresis; type: binding; conditions: 20 mM Tris pH 7.5, 300 mM NaCl, 0.01% Tween-20, room temperature; protein labelled with maleimide NT-647
T1 construct: gene NF2; full-length, residues 1-595, N-terminal GST tag kept (pGEX-6P-1), E. coli BL21(DE3) Rosetta2
T1 sequence (P35240 1-595 A585W/R588K): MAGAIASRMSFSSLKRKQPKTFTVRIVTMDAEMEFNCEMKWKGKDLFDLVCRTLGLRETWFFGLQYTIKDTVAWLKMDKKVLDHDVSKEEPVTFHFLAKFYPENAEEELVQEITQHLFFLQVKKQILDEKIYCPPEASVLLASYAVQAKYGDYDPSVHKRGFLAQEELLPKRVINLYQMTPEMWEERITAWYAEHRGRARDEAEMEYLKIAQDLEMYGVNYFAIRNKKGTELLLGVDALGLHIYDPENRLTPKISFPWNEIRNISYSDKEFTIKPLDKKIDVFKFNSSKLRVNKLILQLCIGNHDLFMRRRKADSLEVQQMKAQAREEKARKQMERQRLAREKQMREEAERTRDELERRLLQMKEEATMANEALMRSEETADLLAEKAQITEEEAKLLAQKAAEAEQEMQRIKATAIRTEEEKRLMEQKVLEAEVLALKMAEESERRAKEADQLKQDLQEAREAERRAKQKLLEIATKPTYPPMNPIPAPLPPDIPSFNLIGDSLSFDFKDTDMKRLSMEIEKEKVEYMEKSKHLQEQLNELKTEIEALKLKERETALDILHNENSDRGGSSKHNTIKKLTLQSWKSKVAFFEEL

[2] = target: neurofibromin 2 tail tail (Homo sapiens) (UniProt P35240); conditions: cited from earlier work
[3] = target: T2, N terminally GST-tagged full-length neurofibromin 2, wild type (human, UniProt P35240 1-595, labeled with NT-647 red dye (maleimide conjugated cysteine reactive or NHS conjugated lysine reactive)); assay: MST; unlabeled LATS1 69-100 (2 mM) titrated into 5 uM NT-647-labeled GST-neurofibromin 2; 20 mM Tris pH 7.5, 300 mM NaCl, 0.01% Tween-20; room temperature; conditions: both partners purified
T2 construct: neurofibromin 2 (merlin), human, full length, residues 1-595; also called NF2; merlin; source: E. coli BL21(DE3) Rosetta2, purified (GST column); not shown: GST, N-terminal, kept
T2 sequence (looked up): T1 sequence (P35240 1-595 A585W/R588K) with W585A, K588R

[4] = target: T3, N terminally GST-tagged full-length neurofibromin 2 lipid binding deficient mutant (T59V, W60E, R309Q, R310Q) (human, UniProt P35240 1-595, T59V | W60E | R309Q | R310Q, labeled with NT-647 red dye (maleimide conjugated cysteine reactive or NHS conjugated lysine reactive)); assay: as above; conditions: both partners purified
T3 construct: neurofibromin 2 (merlin), human, full length, residues 1-595, with four point mutations; Cloned into pGEX-6P-1; also called LBD; source: E. coli BL21(DE3) Rosetta2, purified (GST column); not shown: GST, N-terminal, kept
T3 sequence (looked up): T1 sequence (P35240 1-595 A585W/R588K) with T59V, W60E, R309Q, R310Q, W585A, K588R

[5] = target: T2, N terminally GST-tagged full-length …; assay: MST; as a1, but LATS1 69-100 titrated into the neurofibromin 2/PIP2 complex (in the presence of PIP2); conditions: both partners purified

neurofibromin 2 tail tail (Homo sapiens), sequence (P35240 506-595): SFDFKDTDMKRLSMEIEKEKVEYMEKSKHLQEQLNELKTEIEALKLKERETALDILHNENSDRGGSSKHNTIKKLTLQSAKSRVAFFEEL

Molecule: CCCCCCCC(=O)OC[C@H](COP(=O)(O)O[C@@H]1[C@H](O)[C@H](O)[C@@H](OP(=O)(O)O)[C@H](OP(=O)(O)O)[C@H]1O)OC(=O)CCCCCCC [PIP2diC8]
microscale thermophoresis [1]: No binding was observed for the artificially closed A585W-R588K (AR) mutants to h PIP2

Molecule: neurofibromin 2 head head (from UniProt P35240)
Kd [2]: 3 µM

Kd [3]: 39.3 ± 4.25 µM | Kd [4]: 176 ± 34.5 µM | Kd [5]: 3.77 ± 0.72 µM
B1: LATS1 (residues 69-100) (domain or fragment, UniProt O95835 69-100, looked up)
chain: PKFGTHHKALQEIRNSLLPFANETNSSRSTSE
notes: Hippo pathway kinase LATS1, residues 69-100; it was unlabeled; also called LATS1 kinase; LAST1 residues 69-100
